Consider 41 sequences from the nanobody polyreactivity screen of Harvey et al. (2022).

The data set can be described thus: yeast display, Sf9 membrane polyspecificity reagent, FACS + sequencing; frameworks hold sequencing errors. In a few lines:
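In a synthetic yeast display library (Saccharomyces cerevisiae BJ5465), nanobody expression was induced with galactose for 36–48 hours. FACS gates were set low and high (top ~1%) using anti-HA fluorescence for expression and streptavidin fluorescence for binding of the Sf9 membrane reagent. Each polyreactivity label is drawn from the gate of origin.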
On to “QVQLEESGGGLVQAGGSLRLSCAASGFTFYLYAMGWYRQAPGKERELVASISSGGRTYYADSVKGRFTISRDNAKNTVYLQMNSLKPEDTAVYYCAVSPYSRRKYEYYYWGQGTQVTVSS”, for which the “polyreactivity (PSR sort gate)” value is listed as “high polyreactivity”. The entry for “QVQRVESGGGLVQEAGSLRLSCAASGSILGINVMGWYRHDHGKQRDLVAAISRSGGTTYYADSVKGRFTISRDNGKNTVYLQMNSLKPEDTAVYSCAVYNRPYKEYGYNYCGQGTQVTVSS” is “high polyreactivity”; for “QVQLVESGGGLVQAGGSLRLSCAASGRIFGVYAMGRYRQAPGKERELVAGINGGDSTYYADSVKGRFTISRDNAKNTVYLQMNSLKAEDTAVYYCAAEADESGSNYDYWGQGTQVTVSS” it is “low polyreactivity”; for “QVQLVESGGGLVQAGGSLRLSCAASGSIFGYYAMGWYRQAPGKERELVAAISGSGGSTYYADSVKGRFTISRDYAKNTVYLQMNSLKPEDTAVYYCAARWQWLNGYYYWGQGTHVTVSS” it is “high polyreactivity”. The entry for “QVQLVESGGGLVQAGGSLRLSCAASGRTFRNYAMGWYRQAPGKERELVAAISSGGRTNYADSVKGRFTISRDNAKNTVYLQMNSLKPEDTADYYCAVRRGAFSTYPGYNYWGQGTQVTVSS” is “high polyreactivity”; for “QVQLVESGGGLVQAGGSLRLSCAASGSIFSGNAMGWYRQAPGKKGVGCRYYSCWFYDYADSVKGRFTISRDNAKNTVYLQMNSLKPEDTAVYYCAKSNYVRSEFNYWGQGTQVTVSS” it is “low polyreactivity”; for “QVQLVESGGGLVQAGGTLRLSGDASGSTFPANAMGWYRQAPGKERELVAAISYRGGSTYYADSVKGRFTISRDNAKNTVYLQMNSLKPEDTAVYYCAATPWYRTRTYDYWGQGTQVTVSS” it is “high polyreactivity”.

Take “QVQLVESGGGLVQAGGSLRLSCAASGFIFPYYAMGWYRQAPGKERELVAAISSSGGRTYYADSVKGRFTISRDNAKNTVYLQMNSLKPEDTAVYYCNARPNPYLGYGYWGQGTQVTVSS”: the “polyreactivity (PSR sort gate)” value is recorded as “high polyreactivity”. As for “QVQLVESGGGLVQAGGSLRLSCAASGNTFYNVYAMGWYRQATGKERELVAAITARGSTYADSVKGRFTISRDNAKNTVYLQMNSLKPEDNAVYYGATRSSWLYRGLYYNGFNYWGQGTQVTVSS”, the entry is “high polyreactivity”; as for “QVQLVESGGGLVQAGGSLCLSCAASGSTLRRYAMGWYRQAPGKERELVAAITYRSGSTYYADSVKGRFTISRDNAKNTVYLQMNSLKPEDTAVYYCAKVGYVSKYWFAGDYWGQGTQVTVSS”, “high polyreactivity”; as for “QVQLVESGGGLVQAGGSLRLSCAASGSIFVAYDMGWYRQAPGKERELVAAINFDGTSTYYADSVKGRFTISRDNAKNTVYLQMNSLKPEETAVYYCNNRVSPTYKGQYEYWGQGTQVTVSS”, “low polyreactivity”. As for “QVQLVESGGGLVQAGGILRVSCAASGYTFLGYAMGWYRQPPGKEMELVAVISRTGGRTYYADSVKGRFTISRDNAKNTVYLQMNSLKPEDTAVYYCATEDYRGPEYDYWGQGTQVNVSS”, the entry is “high polyreactivity”; as for “QVQLVESGGGLVQAGGSLRLSCAASGSTFFPNGMGWYRQAPGKERELVAAITQDGGSTYYADSVKGRFTISRDNAKNTVYLQMNSLKPEDTAVYYCAASAGPYYEYGYWGQGTQVTVSS”, “low polyreactivity”.

With “QVQHVESGGGLVQAGGSHRLSCAASGRTFDTNDMGWYRQPPGKERELVAVITARGGNTSYADSVKGRFTISRDNAKNPVYLQMNSLKPEDTAVYYCAAESQSTSYGLDYWGQGTQVTVSS”, the “polyreactivity (PSR sort gate)” value is listed as “low polyreactivity”. As for “QLQLVESGGGLVQAGGSLRLSCAASGFIFADYAMGWYRQAPGKERELVAAISSNGGSTYYADSVKGRFTISRDNAKNTVYLQMNSLKPEDTAVYYCAVRHRYYKDYEFDYWGQGTQVTVSS”, the entry is “high polyreactivity”; as for “QVQLVESGGGLVQAGGSLRLSCAATGFTFYKNAMGWYRQAAGKDRELVAAITRGGTTNYADSVMGRFTISRDNAKNTVYLQMNSLKEEDTAVYYCAKQGRYLTRYGYWGQGTQVTVSS”, “high polyreactivity”; as for “QVQLVESGGGLVQAGRSLRLSCAASGSNFLTNTMGWYRQAPGKERELVAAITLRGGRTYYADSVKGRFTISRDNAKNTVYLHMNSLKPEDTAVYYCNARNYYYPSDRDYWGQGTQVTGSS”, “low polyreactivity”. The entry for “QVQLVESGGGLVQAGGSLRLSCAASGFIFWWYAMGWYRQAPGKERELVATITASVGSTNYADSVKGRFTISRDNAKNTVYLQMNSLKPEDTAVYYCASDIIGAIRDWDHTRMDYWGQGTQVNVSS” is “low polyreactivity”; for “QVQLVESGGGLVQAGGSLRLSCAASGSIHSLYTMGWYRQAPGKERELVARISRSGGSTYYADSVKGRFTISRDYAKNTVYLQMNSLKPEDTAVYYCADERKNKYDYWGQGTQVTVSS” it is “high polyreactivity”. The entry for “QVQLVESGGGLVQAGGSLRLSCAASGITFFFNAMGWYRQAPGKERELVAAITSGAGSTYYADSVKGRFTISRDNAKITVYLQMNSLKPEDTAVYYCASEWSYGGMDYWGQGTQVNVSS” is “low polyreactivity”; for “QVQLVESGGGLVQAGGSLRLSCAASGITFPINAMGWSRQAPGKEREFVATISFSGASTYYADSVKGRFTISRDNAKNTVYLQMNSLKPEDTAVYYCAADLSLSTGGRAFPTYGYWGQGTQVTVSS” it is “high polyreactivity”. As for “QVQLVESGGGLVQAGGSLRLSCAASGSIFPRYAMGWYRQAPGKERELVAAITSGGSTNYADSVKGRFTISRDNAKNTVYLQMNSLKPDDTAVYYCATVRSLKEGASYFYWGQGTQVTVSS”, the “polyreactivity (PSR sort gate)” value is listed as “high polyreactivity”.

Turning to “QVQLVESGGGLVQAGGSLRLSCAASGRIFRYYAMGWYRQAPGKEREFVAAISSNTGTGTYYADSVKGRFTISRDNAKNTVYLQMNSLKPEDTAVYYCNAKYKYRGYYWGQGTQVTVSS”, the “polyreactivity (PSR sort gate)” value is given as “high polyreactivity”. As for “QVQLVESGGGLVQAGGSLRLSCAASGRTFWWYAMGWYRQAPGKERELVAAITQSGGSTFYADSVKGRFTISRDNAKNTVYLQMNSLKPEDTAVYYWGQGTQVTVSS”, the entry is “low polyreactivity”; as for “QVQLVESGGGLVQAGGSLRLSCAASGSTFGYNAMGWYRQAPGKERELVAAITRSGGSTDYADSVKGRFTISRDNAKNTVYLQMNSLKPEDTAVYYCAADGDHPWWSQYDYWGQGTQVTVSS”, “low polyreactivity”; as for “QVQLVESGGGLVQAGGSLRLSCAASGSIFYGYAMGWYSQAPGKERELVAAISSSGGSTYYADSVKGRFTISRDNAKNTVYLQMNSLKTEDTAVDYCAADWDFVNGWFNYWGKGTQVTVSS”, “high polyreactivity”. As for “QDQLVESGGGLVQAGGSLRLSCAASGFTFGNNARGWYRQAPGKERQFVATISRRGGSTYYADSVKGRFTISRDNAKYTVYLQMNSLKPEDTAVYSCAVDRAGIKLAAGYDYWGQGTQVTVSS”, the entry is “high polyreactivity”; as for “QVQLVESGGGLVQAGGSLRLTCAASGFIFNYNTMGWYRQAPGKERELVAGINWSGTRTYYADSVKGRFTISRDNAKNTDYLQMNSLKPEDTAVYYCNAYTQQYRSYGYWGQGTQVTVSS”, “high polyreactivity”; as for “QVQIVESGGGLVQAGGSLRLSCAASGFTFVYYAMGWYRQAPGKERELVAAISKRGGSTYYADSVKGRFTISRDNAKNTVYLQMNSLKPEDTAVYYCNAGYGRWQRHDYWGQGTLVTVSS”, “high polyreactivity”. As for “QVQLVESGGGLVQAGGSLRLSCAASGSTVSSNAMGWFRLAPGQERELVAAIDRGGSTYYADSVKGRFTISRDNAKNTVYLQMNSRKPEDTAVYYCNADYYHLNSGMYYWGQGTQVTVSS”, the entry is “low polyreactivity”; as for “QVQLVESGGGLVQAGGSRRLSCAASGSTFGWYVMGWYRPAPGKDREFVAAIDNSGGDTYYADSLKGRFTISRDTAKNTVYLQMNSLKPEDTAVYYCDDEAYTRASFENDYWGQGTQVTVSS”, “low polyreactivity”; as for “QVQLVESGGGLGQAGGSLRLSCAASGRTFGDYVMGWYRQAPGKEREFVAAITDSGDRTYYADSVKGRFTISRDNAKNTVYLQMNSLKPEDTAVYYCNDEIWDWYYWYAYWGQGTQVTVSS”, “high polyreactivity”. On to “QVQLVESGGGLVQAGGSLRLSCAASGFIFAWYTMGWYRQAPGKERELVAAISANGGNTYYADSVKGRFTISRDNAKNTVYLQMNSLKPEDTAVYYCAALYKYSSSFDYWGQGTQVTVSS”, for which the “polyreactivity (PSR sort gate)” value was “high polyreactivity”. The entry for “QVQLVESGGGLVQAGGSLRLTSAASGFTFYPYAMGWYRQATGKEMELVAAINSGGSTYYADSVKGRFTISRDNAKNSVYLQMNSLKPEDTAVYYCAAYGKRGAVAFYYWGQGTQVTVSS” is “high polyreactivity”. The entry for “QVQLVESGGGLVQAGGSLRLSCAASGFTSNEYAMGWYRPAAGTERELVAAISKSGGRTYYADSVKGRFTISRDNAKNTVYLQMNSLKPEDTAVYYCGKRRNTTYYAGGFDYWGQGTKVTVSS” is “high polyreactivity”. As for “QVQLVESGGGLDQAGGSLRLSCAASGNIFVEYAMGWYSQAPGKERELVAAITNSGGRTHYADSVKGRFTISRDNAKNTGSLQMNSRKPEDTAVFYCAAPTKYRSRRYYWGQGTQVSVSS”, the entry is “high polyreactivity”; as for “QVQLVESGGGLVQAGGSLRLSCAASGRIFYGYAMGWYRQAPGKERELVAAITRSGGSTYYADSVKGRFTISRDTAKNTVYLQMNSLKPEDTAVYYCNAQWGYRTSFDYGYWGQGTQVTVSS”, “low polyreactivity”. As to “QVQLVESGGGLVQAGGSLRLSCAASGRTFSQYAMGWYRQAPGKERELVAAISWSGGSTYYADSVKGRFTISRDNAKNTVYLQMNSLKPEDTAVYYCAAVGKGSARSSYPVLYDYCGQGTQVTVSS”, the “polyreactivity (PSR sort gate)” value is given as “low polyreactivity”. As for “QDQLVESGGGLVQAGGSLRLSCAASGLIFYDNLGWYRQAPGKERELVAAISSSGGSTSYADSVKGRFTISRDNAKNTVYLQMNSLKPEDTAVYYCAADSYPAYLGFVGFDYWGQGTQVTVSS”, the entry is “low polyreactivity”; as for “QVQLVESGGGLVQAGGSLRLSCAASGSIFKYYTMGWYRQAPGKERELVAAITYTGGRTYYADSVKGRFTISRDNAKNTVYLQMNSPKPEDTAVYYCAKDGPATVRRGYDYWGQGTQVTVSS”, “high polyreactivity”. Regarding “QVQLVESGGGLVQAGGSLSISCAASGRTFPEYGMGWYRQAPGKDREFVAAISTRGGSTYYANSVKGRFTISGDNAKNTVYLQMNSLKPEDTAVYYCAKVYDRSGGDYWGQGTQVTVSS”, the “polyreactivity (PSR sort gate)” value is given as “low polyreactivity”.
